# Target: soluble recombinant FcγRIIIB (sFcγRIIIB) (UniProt O75015)
# Test: SPR, comparison of SAP and CRP affinities
# Sequence of soluble recombinant FcγRIIIB (sFcγRIIIB) (O75015 17-200): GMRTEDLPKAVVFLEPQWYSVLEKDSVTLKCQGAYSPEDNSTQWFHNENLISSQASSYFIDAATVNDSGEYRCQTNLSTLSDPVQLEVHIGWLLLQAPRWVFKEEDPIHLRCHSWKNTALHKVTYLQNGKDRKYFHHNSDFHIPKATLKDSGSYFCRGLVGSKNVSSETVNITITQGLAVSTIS
substance,measurement,value
serum amyloid P (SAP) (from UniProt P02743 20-223) (ligand; other documents disagree on this pair),fold affinity of SAP over CRP for the same receptor,1000 fold
